Data as given in the DeepSol protein solubility set.

Test: soluble on expression in E. coli; label from the status in PepcDB or PDB records

| Sequence | soluble on expression in E. coli |
| --- | --- |
| MSLRYFVFATFKVHKDATNSYFSNGDVVVVNRNRTPKYKDFIVYKVGKIFYISRVIGEPNQKVRVMDDILYLNDVFKDEPYIEKMKNAYSEKKDGQMPFTSDFSVETLTRNKESRVPKGSYLVLNDNRQNKNDSRKFGLIKEKDIRGVITFKVYPLSEFGFTASEGHHHHHH | soluble |
| MELTMAKELIFIDWDDTLVNRENAEDFESVTDENNTIYQMSPMFIGAVEALKQLQEKYHVVIVSSRGDLNRLRQLQLQSYDLESSIMPLENFTFEDNDNRLLFTRYGETNFPDKASFILYIQKMSGNKIKVFIDDDHTEIEAAQSKGIPTIHATHNKYLQNTEQFFSGLIHQVDNMELSHIFNKVAAEIRNNSRSISWGRQIAGFFSVHLPIAQSLENLASKLQRKSANEVSEEFDQYLKKIAYDPNKKGDIAVSLTKAKTAIDKHISAPIEIKEDQPFLNRMI | not soluble |
| MAHHHHHHMVKVKTISRSHLEWTKDRNGEVPRVNRNFDTKYNPMAKQTEFTRAIRAAKLDRMFAKPFVGALSGHHDTIQSVAVDYTSLSTVVSGAFDGGIIVWDVFTKRPKAIVDAHRHSVDGLVLSTDGVACFSASRDKVVKMWDLDFPSDDSKVEPLAEYLGEFPFSSIDHHFHKSIFVTSSDAVHLWDVNRTQPLQRFSWGDDTVSCCQFNKVETELVACCMSDRGVFIYDTRTKASHSKIIMEMCCTSVAWNPMDPNTFVTGSDDRNCYLFDMRVPGRPKSVFQGHINGITSVDFCPTGKKFVAGSLDATLRMWDIHQTTKSNSIEMYHTKRMAKVFSVKWSPDSSYIYSGSEDAILRVWKADASKPVRPLRGPERSSFNYMRSLKDRYSGFVEVRRIANQRNTPKAISRAQLRGKKAEKREFVKEASRRKHDDIKPLAQRKVYQSLN | not soluble |
| MGSDKIHHHHHHMGKHTKFGSSDDEGETETSVAKRQKDEKKEKKKEKRDRSRSPHKERERSPKRDRHPEKNESRRHDDRDQERRRDYGRNDRRDDRRGDGSWKTDRNDRNDRRNDFQRRDDKNRLSAEEIAAQRKALWGNKKVAGESSSSNTTDTASSSSEPATGGKNEKLWSSAIAATGVDSSKANKFMRLMGVKNAPKPTDDSSRLSDEKNRQDKMLNDLEKQYAIARETTHMGRGTGFGFGH | not soluble |
| MGSDKIHHHHHHLKEAILSPRFYTTDFKAIDRLEIDRNGLRDEFDWIRDEFAYDYNRTHFRRTDEFLQDFDDMPERDSFIDFLERSCTAEFSGCLLYAEMVKHLHDPTLRAIFKYMSRDEGRHAGFLNRTMADLNVALDLTVLQKRKKYTYFQPKFIFYSVYLSEKIGYSRYITIYRHLERNPQYCIHPIFKWFEQWCNDEYRHGEFFALLMRSQPEMLEGVNRRWIRFFLLAVYATMYLNDARRSNFYAALGLDWRDYDQTVIRLCNDIATQVYPETMNLDDPRFFAYMDKLVEYDRALRALESRKDPIAMAHSTRLKAAIALRLLAIYRLPTRKTTEAIRWKGLPGFPNYPGPNRPQRVVAAD | not soluble |
| MDIKIAQESFPILVAENIYHCGYHSEKSYGAASYLIQHSQGNILVDSPRFTPPLVKRIEAMGGIKYMYLTHQDDVADHQKFAEHFQCQRILHTDEISAGTRNVEIQLTGLEPFPLQPDVLIIPVPGHTKGHTVLLYKNKFLFTGDHLAWSENRHQLTAFRDVCWYSWAEQIKSMRRLADYSFDWVLPGHGRRFHADVETMRQQMHKCIELMTDERQPLTFNSLEHHHHHH | not soluble |
| MSLKIPEAVNHINVQNNIDLVDGKTNPNKATKALQKNILRVTNSSSSGISEKHLDHCANTVKNFLRKSIAAQSYSKMFSQGTSFKSLNLSIEAPSGARSSFRSLEHLDKVSRHYISEIIQKVHPLSSDERHLLSIIINSNFNFRHQSNSNLSNNILNIKSFDKIQSENIQTHKNTYSEDIKEISNHDFVFFGVEISNHQEKLPLNKTHHTVDFGANAYIIDHDSPYGYMTLTDHFDNAIPPVFYHEHQSFFLDNFKEVVDEVSRYVHGNQGKTDVPIFNTKDMRLGIGLHLIDFIRKSKDQGFREFCYNKNIDPVSLDRIINFVFQLEYHIPRMLSTDNFKKIKLRDISLEDAIKASNYEEINNKVTDKKMAHQALAYSLGNKKADIALYLLSKFNFTKQDVAEMEKMNNNRYCNLYDVEYLLSKDGANYKVLEYFINNGLVDVNKKFQKANSGDTMLDNAMKSKNPKMIDFLLKNGAILGKRFEIEGHHHHHH | soluble |
| MSRKNILQGLMAGTPSPAPAAAERPRATKGAIGAVSRSIADLKARAVIEVDPFLIDAGGLQDRLESDAAEDAELARSIATYGQQVPVLVRPHPTDENRFQIVYGRRRVLALRDLGQPVKALVRDLDDREAVLAQGQENTARRDLSFIEKVNFARQMADAGYDRKAICDALSVDKTLISRMVSVSERVPVALIEAIGAASGIGRDRWLALAELMEKTDDDLDTLISTMSLTAEGQGSDQRFEALFSYLSGQRRREPPAPLRTEPITGHDGRPLGDVSRGAASVVLRLRRSHAKGFEEWLLQNLPDLHRSWQSDRNGK | not soluble |
| AHHHHHHGSLLPDWKIRKEILIEPFSEESLQPAGYDLRVGREAFVKGKLIDVEKEGKVVIPPREYALILTLERIKLPDDVMGDMKIRSSLAREGVIGSFAWVDPGWDGNLTLMLYNASNEPVELRYGERFVQIAFIRLEGPARNPYRGNYQGSTRLAFSKRKKL | soluble |
| SNAMTTPIRVVVWNEFRHEKKDEQVRAIYPEGMHTVIASYLAEAGFDAATAVLDEPEHGLTDEVLDRCDVLVWWGHIAHDEVKDEVVERVHRRVLEGMGLIVLHSGHFSKIFKKLMGTTCNLKWREADEKERLWVVAPGHPIVEGIGPYIELEQEEMYGEFFDIPEPDETIFISWFEGGEVFRSGCTFTRGKGKIFYFRPGHETYPTYHHPDVLKVIANAVRWAAPVNRGEIVFGNVKPLEPIKAKQGGVTQ | soluble |
| MGSDKIHHHHHHMLNDRARILLKTLVERYISEGEPVGSRTLSKHAGLDLSPASIRNIMSDLEEMGFVASPHTSAGRVPTPRGYRFFVDTLLTVRPLDQVSVNHLENSLAASDPQRLMTAASTLLSDLSQFAGLVMTPRRNPAFRQIEFLTLSDKRVLLIIVTMEGEVENRVIVTEQSYSAAALTEAANYFNQNFAGHSFDHVRSKLRDELGRMRDDITRLMAAAVDAGTQALDASQDNVVVSGSRKLLDVEELSSNMRSLRRLFDAFEKKTGLLQLLDQSRSAAGVQIFIGGESELLPLDECSLVTAPYSVDGVVVGTLGVVGPTRMAYERVVPIVDVTAKILSSALSQHK | not soluble |
| MGSDKIHHHHHHMITESRQMLDKRNRPLRDLRISVTDRCNFRCTYCMPAELFGPDYPFLKKEELLSFEELERLATLFVTRFGVEKIRLTGGEPLMRKDMPELIKKLARIPGIRDIAMTTNGSLLPVYAKRLKEAGLKRVTISLDSLEDERFKKINGRGVSVSKVLEGIEAAKQAGLGVKINMVVQKGVNEKDILPMARYFKEKGHILRFIEFMDVGNTNQWEKKDVMTKAEIIDLINKHMPVEPIAPNYIGEVASRFRYLDGSGEIGVISSVSDAFCGSCNRARLSARGELFTCLFASSGFDLRAPVRQELSDDELSEMIGTVWKNRIDQYSVDRTLSKASGKKKVEMSYIGG | not soluble |
| ALEGTEFARSEGASALASVNPLKTTVEEALSRGWSVKSGTGTEDATKKEVPLGVAADANKLGTIALKPDPADGTADITLTFTMGGAGPKNKGKIITLTRTAADGLWKCTSDQDEQFIPKGCSR | soluble |
| MNIPTTTTKGEQAKSQLIAAALAQFGEYGLHATTRDIAALAGQNIAAITYYFGSKEDLYLACAQWIADFLGEKFRPHAEKAERLFSQPAPDRDAIRELILLACKNMIMLLTQEDTVNLSKFISREQLSPTSAYQLVHEQVIDPLHTHLTRLVAAYTGCDANDTRMILHTHALLGEVLAFRLGKETILLRTGWPQFDEEKAELIYQTVTCHIDLILHGLTQRSLD | soluble |
| MAGDPMTALKYLQAYPVALQQQVRQLIDEQRLGDYLSQRYPGRHAVQSDKALYSYALELKQEYLRNAPAIDKVLFDNRLDLTHRALGLHTTVSRVQGGKLKAKKEIRIASLFKEAAPEFLRMIVVHELAHFKESDHNKAFYKLCEHMLPGYHQLEFDLRVYLTWRDLQGKAGAPDLEHHHHHH | soluble |
| MDVKWEGFSGVEMEEVKRNVFLTTLEQLKGWARSSSLWPLTFGLACCAIEMMAVGGAHYDLDRFGSFFRASPRQADVMIVSGTVTKKMAPLLRRLYDQMPEPKWVIAMGSCATAGGPYVKSYSVVKGVDQIVPVDVYIPGCPPNPAALIYGIHKLKEKIRLEAKTGKKVL | not soluble |
| MSLTNLLQKIGDAVTVVNFSLYEGFIFDMDGTLLDTMPAHLAAWEATAKHFDFPFDAQWLYGLGGMPSAKITTHINKKLGLALDPDRVAAYKMDWFASMGLQAEVIPATYELLCQWQGKKKMAIGTGSQRDSALRLLSNAQVLDKFDAVVTASDVQQHKPHPETFLMACEQLGLTPKQCLVFEDTQLGLQAAHAGGMDCMLVTEQGLVFYPFAHEGHHHHHH | soluble |
| MPLPFSIISTTSQDVLEDADSDEEAETFYVNWITEKNHSFPQSMVLELEEESLVSSVKLIVHKDYPPSSLTVSLGIPSNHFRNSRGKSYNADYSVRQELSFRDDFHVEYGQKHPKATVFFNSPAKFVRISVHGFSDSDVNHHRQVSILSVIISGAGEILPFDSHLKDEPKQTEMSYIELDKGILLPLKSKPKMRETKTIVGLYDTDSEDEEILFSKEMLNRLRKREAVMKNPQLPTTSAITETIAIDTSCEKSAPVSSSSSSKQQSSVSPPLSDRSKKQILDEILGIDEKGNKGKPRKEVYFGSRMSEFNNMLRLLERKREESIWEEKYAQASAIDESVKDLKSREAGLRELIIEREDALKGKDLIAAQR | not soluble |
| MLTLKNDYLTVKINPLGAELTSVVDNETQLEYMWQADKAYWGRHAPILFPIVGRLQDNQYRLGERTYHMTQHGFARDREFTVIDQTPTQVTLELTADDQSRALFPADFTLTVTFELIDHQLRFSADVFNPATTTLPFSIGAHPGFNVPLGDALADFTDYQVTVSPKKTYQRVPLVGPYSDSQHTEPLDLTQPLGLDHGLFAHDAQVLTLDSETTVMLSTPTNDHGVALTTTAPYLGIWSPYPKQAPFVCLEPWWGLADDVQATGELTTKVAIHHLAAQQHFQAAYQVTYFLEHHHHHH | not soluble |
| MAHHHHHHMGIYSDTDDDSPIGIEVVGEASSDSEEPNPHSTTKRKVSGAVDHNNGYNQKKNKRRRLKNKWEENPQLHETPDEEQISNVKKRVYVLDTCSIVEHIEWSILEEVAKYYLIIIPKKVMDELGKMEGGRGSTCNRVLNKLENEHTSNKMNVGFRLQRKNDKDKNVLSAARVNDDHILSCACSFRNEHDVVLVTSDNILKLKAYAEGIPTVSTLKDVTRLTNGLRGGKFE | not soluble |
| MSLFLSNVILHQLRKNDNDELVVNYRAESLRNDTSTENLVAELHRVFNAKAGKGFGCFKSDSEFQLWLQEMRRGTLPFYEFSQQSAQRLKNELAKYPFADEGILVMAEYQSLATDYLFIGLLPLNQSLKVTEGLDISATDYLDINKMDIVARIDLSSYETDKESKRYLSYIKGRVGRKVADFFLDFLQADIGLDTKQQNQVLMQAVEDFCADAKFEKEEVISYKKQVYEYCNDQIKAGDEVRVQELSGELPPSNEGVNFFDFTREQGYQLEESFPADRSTVRKLTKYVGAGGGLNLSFDSLLLGERVFYDPETDTLTIKGTPPNLRDQLTRLRLEHHHHHH | soluble |
| MEKKIEKVRQFYTALAQGDFETVGALLSDDLVWHQPGQGALSGTYNGKQNVFAHLERMAQLSNGTFAIDQVDYVTDNGNLVAAAIAFAVSANGHSIEMKGVDLFNFENGFIKKVWLFSERIEEESRFWTALAQGC | not soluble |
